Experimental data published in patent publication US8703907B2, “Controlled drug release from dendrimers” (Prolynx LLC, priority 2010, dated 2014).

Experiments:
[1] = β-eliminative cleavage of DNP-Lys carbamates (HPLC); type: physicochemical; conditions: after 5 days at 37° C. and pH 7.4
Experimental: A series of model linker scaffolds having a range of functional groups as potential pKa modulators (substituted aromatics, ketones, nitriles, sulfones) were designed, prepared and linked via carbamate bonds to Ne-2,4-dinitrophenyl-L-lysine (Ne-DNP-Lys) for evaluation of release rates; DNP-Lys is water soluble and is a strong chromophore to permit HPLC-UV analysis. Rates of release at pH 7.4 and/or 8.3 were determined.
The DNP carbamates were prepared as follows. A suspension of N-DNP-L-Lys HCl (35 mg, 0.1 mmol) in 600 μL of water was treated successively with 1.0 N NaOH (200 μL) and 1.0 M NaHCO3. A 0.1 M solution of the N—HS carbonate in acetonitrile (1.0 mL) was added to the stirred mixture to give a clear yellow solution. After 1 hr, the mixture was diluted with 10 mL water and loaded onto a Bond-Elut™ C18 extraction column (1 gm). The column was washed successively with water, 1% CF3CO2H/water, water, and 50% MeOH/water. The product was eluted with MeOH, then evaporated to give the product as a yellow glass. Kinetic analyses were performed by HPLC (C18; linear MeOH/water+0.5% HOAc gradient) using a UV/vis monitor. The areas under the DNP and starting material peaks were integrated to determine extent of reaction.
The half-lives for cleavage span 2 hr to >10 days. […]

[2] = hydrolysis of carbamate in 50% human serum; type: in vitro ADME; conditions: 1 week at 37° C.
From the text: The half-lives for cleavage span 2 hr to >10 days. […] In general, compared to C—H, a) electron withdrawing groups at R^1 increase the rate; b) alkyl groups at R^3 increase the rate; and c) aryl moieties at R^3 decrease the rate.

GLP1 receptor = target: T1, GLP1 receptor (Rattus norvegicus, UniProt P32301); experiment: GLP1 receptor agonism in membrane or cell-based assays after β-eliminative release; conditions: native exendin released by mild base
T1 construct: in membrane or cell-based assays (e.g., RIN-m5f cells, ATCC); host or cells: RIN-m5f cells
T1 sequence (P32301 22-463): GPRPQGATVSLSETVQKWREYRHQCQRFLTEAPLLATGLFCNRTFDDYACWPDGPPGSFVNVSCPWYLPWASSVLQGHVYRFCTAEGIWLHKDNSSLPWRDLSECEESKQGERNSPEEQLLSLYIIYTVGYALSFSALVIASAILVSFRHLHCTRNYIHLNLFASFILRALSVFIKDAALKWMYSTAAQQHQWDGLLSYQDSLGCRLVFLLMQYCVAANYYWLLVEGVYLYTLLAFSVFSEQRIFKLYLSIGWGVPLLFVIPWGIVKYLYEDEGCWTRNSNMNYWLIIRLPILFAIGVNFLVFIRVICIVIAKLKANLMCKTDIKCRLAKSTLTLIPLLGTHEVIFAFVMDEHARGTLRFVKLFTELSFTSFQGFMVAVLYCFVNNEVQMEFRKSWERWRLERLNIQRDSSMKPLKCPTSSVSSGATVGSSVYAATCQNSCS
Experimental: The PEG and PEG-dendrimer conjugates are tested as agonists of the GLP1 receptor in membrane or cell-based assays (e.g., RIN-m5f cells, ATCC as described (Young, A., et al., (2000) WO00/66629) pages 74-75) before and after β-eliminative release of native exendin.

plasma proteases = conditions: cited from earlier work
[3] = in vivo; cited from earlier work

For `O=C(N[C@@H](CCCCNc1ccc([N+](=O)[O-])cc1[N+](=O)[O-])C(=O)O)OCc1ccccc1` [O-benzyl-N—(Ne-2,4-DNP-Lys) carbamate], which cleavage [1] is on record?
The cleavage was “less than 0.25%”.

What about the “hydrolysis in 50% human serum” value [2] of the same compound?
The value was “no detectable hydrolysis”.

What does the source list for “Exendin-4: 39-amino acid peptide from the Gila monster, agonist of the GLP-1 receptor”?
activity as GLP1 agonists (GLP1 receptor): full activity; t1/2 against plasma proteases in vitro (plasma proteases): ~10 h; half-life [3]: 2.5 h

Which plasma lifetime [3] does the source give for GLP-1: glucagon-like peptide 1 here?
The plasma lifetime was about 5 min.
